{"source": "patent US7906477B2", "about": "(Genspera, Inc., priority 2002, dated 2011)", "key": {"hK2 [1]": {"biological_target": "T1, hK2 (Homo sapiens, UniProt P20151)", "T1 construct": "made in house", "T1 sequence (P20151 25-261)": "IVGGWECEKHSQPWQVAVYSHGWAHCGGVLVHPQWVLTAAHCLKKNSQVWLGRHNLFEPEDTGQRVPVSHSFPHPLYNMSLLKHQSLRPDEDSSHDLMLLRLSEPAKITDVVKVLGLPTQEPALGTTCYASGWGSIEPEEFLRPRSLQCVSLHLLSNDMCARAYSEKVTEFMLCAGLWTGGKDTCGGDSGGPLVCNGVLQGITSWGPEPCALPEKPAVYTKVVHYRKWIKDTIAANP", "test": "hK2 hydrolysis of prodrug and non-fluorescent peptide by HPLC", "assay_type": "biochemical", "conditions": "HPLC analysis", "experimental": "FIG. 4 depicts HPLC analysis of the hydrolysis of the hK2 prodrug Ac-GKAFRR-L12ADT (SEQ ID NO:41) by hK2 ([…]) incubated in 50 mM Tris, 0.1 M NaCl, pH 7.8 at room temperature for 24 hours. The mass of each peak was confirmed by MALDI-TOF mass spectrometric analysis.\nFluorescent substrates were analyzed by means of a fluorescence plate-reader (ex=355 nm, em=460 nm). acGKAFRRL-12ADT (SEQ ID NO:41) and acGKAFRRLG (SEQ ID NO:43) were analyzed by HPLC and quantified by HLPC integration.\nThis putative hK2 prodrug was incubated with enzymatically active hK2 (4 μg/ml) to determine extent of hydrolysis over time. […] In 25 min, 50% was hydrolyzed and after 1 hour, more than 80% of the starting prodrug was hydrolyzed. The ratio of the products RL-12ADT:L-12ADT was 1:1.8, as determined by HPLC integration."}, "[2]": {"biological_target": "sarcoplasmic reticulum (SR) and endoplasmic reticulum (ER) Ca^2+-ATPase (SERCA) pump", "conditions": "read-out: apparent dissociation constant for TG from the SERCA pump; cited from earlier work"}, "hK2 [3]": {"biological_target": "T1, hK2", "test": "hydrolysis in the protease panel: hK2", "assay_type": "biochemical", "conditions": "enzyme 1 μg/ml, substrate 500 μM; 1 = approximately 0.1% digestion in 1 hour", "description": "(§1) Due to their short length, the hK2 peptide substrates could potentially be substrates for other trypsin-like proteases. Although a rather specific protease substrate can be defined with 7 amino acids, there is a lack of higher order structural information by which natural protein substrates normally impose high specificity. Cancer progression is often correlated with increased protease activity (Koblinsli, J. E. et al. (2000) Clin. Chim. Acta 291:113-135). These activities could be potentially beneficial since they could broaden the scope of applications for protease activated prodrugs. To test the hypothesis that other tumor-associated proteases could activate the prodrug, a number of known proteases (table 3), implicated in cancer progression were selected to determine if our lead substrate, GKAFRRL (SEQ ID NO:30) could be efficiently hydrolyzed by any of these proteases. For this analysis, the trypsin-like serine proteases plasmin and urokinase and cathepsins B and D were selected. Hydrolysis of both the fluorescence quenched peptide substrate and the TG-prodrug was analyzed. […] Plasmin, therefore, could be a valid target for selective activation of the GKAFRR-L12ADT (SEQ ID NO:44) prodrug in other types of cancer where plasmin activation may play an important role."}, "Cathepsin B": {"biological_target": "Cathepsin B (Homo sapiens, UniProt P07858)", "test": "hydrolysis by tumor-associated proteases: Cathepsin B", "assay_type": "biochemical", "description": "as §1"}, "Urokinase": {"biological_target": "Urokinase (Homo sapiens, UniProt P00749)", "test": "hydrolysis by tumor-associated proteases: Urokinase", "assay_type": "biochemical", "description": "as §1"}, "Plasmin": {"biological_target": "Plasmin (Homo sapiens, UniProt P00747)", "sequence (P00747 581-810 limits assumed, species assumed)": "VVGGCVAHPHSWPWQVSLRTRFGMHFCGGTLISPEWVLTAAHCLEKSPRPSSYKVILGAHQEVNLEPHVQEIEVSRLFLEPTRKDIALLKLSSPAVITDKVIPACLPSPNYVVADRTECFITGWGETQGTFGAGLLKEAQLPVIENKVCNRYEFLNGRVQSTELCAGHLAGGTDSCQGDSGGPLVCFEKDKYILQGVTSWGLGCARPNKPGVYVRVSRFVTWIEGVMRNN", "sequence (P00747 97-580 partner limits assumed, species assumed)": "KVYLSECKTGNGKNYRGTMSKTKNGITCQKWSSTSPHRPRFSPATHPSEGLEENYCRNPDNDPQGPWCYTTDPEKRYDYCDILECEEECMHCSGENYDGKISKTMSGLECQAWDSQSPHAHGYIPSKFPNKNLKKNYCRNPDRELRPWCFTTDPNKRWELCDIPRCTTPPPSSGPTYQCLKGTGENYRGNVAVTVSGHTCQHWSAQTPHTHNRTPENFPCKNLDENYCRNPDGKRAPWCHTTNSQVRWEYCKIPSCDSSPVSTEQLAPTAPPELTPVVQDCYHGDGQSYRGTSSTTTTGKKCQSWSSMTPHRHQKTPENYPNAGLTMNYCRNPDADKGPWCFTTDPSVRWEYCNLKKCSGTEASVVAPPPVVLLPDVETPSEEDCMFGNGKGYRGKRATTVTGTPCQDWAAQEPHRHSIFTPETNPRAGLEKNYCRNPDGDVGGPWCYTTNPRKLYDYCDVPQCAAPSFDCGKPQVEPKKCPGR", "test": "hydrolysis by tumor-associated proteases: Plasmin", "assay_type": "biochemical", "description": "as §1"}, "Cathepsin D": {"biological_target": "Cathepsin D (Homo sapiens, UniProt P07339)", "sequence (P07339 65-412, species assumed)": "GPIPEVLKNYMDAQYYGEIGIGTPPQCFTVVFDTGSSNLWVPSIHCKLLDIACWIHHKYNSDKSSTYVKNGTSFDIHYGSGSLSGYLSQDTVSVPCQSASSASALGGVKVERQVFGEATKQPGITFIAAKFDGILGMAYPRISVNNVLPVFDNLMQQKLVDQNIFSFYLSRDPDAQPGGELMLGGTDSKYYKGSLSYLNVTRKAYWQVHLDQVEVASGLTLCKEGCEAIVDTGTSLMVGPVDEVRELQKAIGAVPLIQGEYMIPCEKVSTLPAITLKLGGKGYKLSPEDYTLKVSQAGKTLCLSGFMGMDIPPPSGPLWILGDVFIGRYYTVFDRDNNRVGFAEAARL", "test": "hydrolysis by tumor-associated proteases: Cathepsin D", "assay_type": "biochemical", "description": "as §1"}, "[4]": {"test": "plasma stability of acetylated versus non-acetylated peptide (plasma species not stated)", "assay_type": "in vitro ADME", "conditions": "plate-reader assay and analytical HPLC", "experimental": "Mouse plasma was obtained from cardiac puncture of anesthetized mice prior to euthanization by CO2 overdose according to protocols approved by the Johns Hopkins Animal Care and Use Committee. Human plasma was obtained from discarded, pooled, and unlabeled clinical samples. Plasma was diluted to 50% in Tris buffer (50 mM Tris-HCl, 100 mM NaCl, pH 7.8). To this, test peptides/prodrugs were added to 250 or 500 μM final concentration. After the incubation period, one volume (200 μl) of acetonitrile was added to precipitate the protein fraction and the tube was centrifuged at 14,000 for 2 min. The supernatant was analyzed by C18-HPLC and the collected peaks were analyzed by MALDI-TOF as described above.\nTo determine whether merely the acetylation of the N-terminus of the hK2 prodrug contributed to its stability, an acetylated fluorescence-quenched peptide (ac-Y′GKAFRRLGK′; SEQ ID NO:18) was synthesized and compared its plasma stability with that of the non-acetylated peptide (Y′GKAFRRLGK′; SEQ ID NO:21). […] Analytical HPLC indicated the same result. […] The paradoxical stability of the hK2 prodrug (ac-GKAFRR-L12ADT; SEQ ID NO:41) compared to the peptide substrates may also be due to binding of the L12ADT moiety to plasma proteins that make it inaccessible to the plasma protease activity that is responsible for hydrolysis of unconjugated (and unbound) peptides."}, "[5]": {"conditions": "enzyme 1 μg/ml, substrate 500 μM, 1 = approximately 0.1% digestion in 1 hour"}}, "note": "Square brackets hold non-standard residues; d marks the D form. Ends that are not written are not given here. Peptide text beside a SMILES is read from it. Tyr(3-NO2) = N[C@@H](Cc1ccc(O)c([N+](=O)[O-])c1)C(=O)O; 2Abz = Nc1ccccc1C(=O)O", "data": [{"compound": "ac-GKAFRRLG: acetylated non-fluorescence quenched peptide (Ac-GKAFRRLG)", "values": [{"measurement": "hydrolysis by hK2 (in words)", "setting": "hK2 [1]", "result": "rapidly hydrolyzed by hK2"}]}, {"compound": "C/C=C(/C)C(=O)O[C@H]1C(C)=C2[C@H]([C@@H]1OC(=O)CCCCCCC)[C@@](C)(OC(C)=O)C[C@H](OC(=O)CCC)[C@@]1(O)[C@H]2OC(=O)[C@@]1(C)O", "note": "[TG, Thapsigargin]", "values": [{"measurement": "Kd", "setting": "[2]", "result": "≤ 2.2", "unit": "pM"}]}, {"compound": "Abz-GKAFRRLY′: fluorescence quenched peptide substrate with the lead sequence GKAFRRL ([2Abz]GKAFRRL[Tyr(3-NO2)])", "values": [{"measurement": "Relative hydrolysis rate, hK2", "setting": "hK2 [3]", "result": 353}, {"measurement": "hydrolysis following incubation with Cathepsin B (in words)", "setting": "Cathepsin B", "result": "No appreciable hydrolysis"}, {"measurement": "Relative hydrolysis rate, Cathepsin B", "setting": "Cathepsin B; [5]", "result": 1}, {"measurement": "activity of Urokinase on the substrate (in words)", "setting": "Urokinase", "result": "low activity"}, {"measurement": "Relative hydrolysis rate, Urokinase", "setting": "Urokinase; [5]", "result": 17}, {"measurement": "Relative hydrolysis rate, Plasmin", "setting": "Plasmin; [5]", "result": 36}, {"measurement": "fold slower rate of hydrolysis by plasmin than by hK2", "setting": "Plasmin; fluorescence quenched peptide substrate", "result": "more than 10 fold"}, {"measurement": "hydrolysis following incubation with Cathepsin D (in words)", "setting": "Cathepsin D", "result": "No appreciable hydrolysis"}, {"measurement": "Relative hydrolysis rate, Cathepsin D", "setting": "Cathepsin D; [5]", "result": 1}]}, {"compound": "CC(=O)N[C@@H](Cc1ccc(O)c([N+](=O)[O-])c1)C(=O)NCC(=O)N[C@@H](CCCCN)C(=O)N[C@@H](C)C(=O)N[C@@H](Cc1ccccc1)C(=O)N[C@@H](CCCNC(=N)N)C(=O)N[C@@H](CCCNC(=N)N)C(=O)N[C@@H](CC(C)C)C(=O)NCC(=O)N[C@@H](CCCCNC(=O)c1ccccc1N)C(=O)O", "note": "[ac-Y′GKAFRRLGK′] (Ac-[Tyr(3-NO2)]GKAFRRLGK(2Abz)-OH)", "values": [{"measurement": "plasma hydrolysis compared with the non-acetylated peptide (in words)", "setting": "[4]", "result": "completely identical"}]}]}
